Source: patent US20170327600, “RNA-PROTEIN COMPLEX, AND RNA AND PROTEIN DELIVERY SYSTEM USING THE SAME” (KYOTO UNIVERSITY, published 2017)

B1: LS-15 (dsRNA)
RNA 1: GGUGAAGGGCGUGAUGAGCGAGAAGUCCGGCUUCGGCGUGAUGAGCCCUGUGCCGGCCCUGGGCGUGAUGAGCAUUCCACC
RNA 2: GGACUUCUCGCUCUGACCCUUCACCGGUGGAAUGCUCUGACCCAGGGCCGGCACAGGGCUCUGACCGAAGCC
B2: LS-48 (dsRNA)
RNA 1: GGACGAGCUGUACACCAUGGUGACCGCCGCCGGGCGUGAUGAGCUCCAAGGACCCCAACGAGAAGCGCGAUCACAUGAUCUACUUCGGCUUCGGCGUGAUGAGCCCUGUGCUGCUGCCCGAUAACCACUACCUGCCAUCACCCACGGCCCUGGGCGUGAUGAGCAUUCCACCCAGAGCGC
RNA 2: GGUGUACAGCUCGUCCGCGCUCUGGGUGGAAUGCUCUGACCCAGGGCCGUGGGUGAUGGCAGGUAGUGGUUAUCGGGCAGCAGCACAGGGCUCUGACCGAAGCCGAAGUAGAUCAUGUGAUCGCGCUUCUCGUUGGGGUCCUUGGAGCUCUGACCCGGCGGCGGUCACCAU
B3: LS-26 (dsRNA)
RNA 1: GGCGCAAAGGCCUGUAAUCGGCGUGAUGAGCCAUGCGAGGAGGAAAUGAAGUCCAAUGGCGUGAUGAGCCUCUACGGGAAGAGCAUGCCCAUCCGGGCGUGAUGAGCGUAGCAA
RNA 2: GGCCUUUGCGCCUUGCUACGCUCUGACCCGGAUGGGCAUGCUCUUCCCGUAGAGGCUCUGACCAUUGGACUUCAUUUCCUCCUCGCAUGGCUCUGACCGAUUACA
B4: LS-26-siGFP (dsRNA)
RNA 1: GGCAUCAAGGUGAACUUCAAGAUCCGCAAAGGCCUGUAAUCGGCGUGAUGAGCCAUGCGAGGA
RNA 2: GGCAUCAAGGUGAACUUCAAGAUCCGGAAAUGAAGUCCAAUGGCGUGAUGAGCCUCUACGGGA
RNA 3: GGCAUCAAGGUGAACUUCAAGAUCCAGAGCAUGCCCAUCCGGGCGUGAUGAGCGUAGCAAGGC
RNA 4: B3 RNA 2
RNA 5: GGAUCUUGAAGUUCACCUUGAUGCCAG

What was measured:
[1] = molecular target: T1, L7Ae (UniProt O29494 O29494:1-119); assay: EMSA; 150 KCl (unit printed ml), 1.5 mM MgCl2, 20 mM HEPES-KOH pH 7.5; triangle also by HS-AFM; details: tags: expressed from pET-28(+) (Novagen) in E. coli Rosetta; chain copies: 3 per LS-RNA; loop of double-stranded RNA with three K-turn motifs
T1 sequence (O29494 whole entry, one chain of several): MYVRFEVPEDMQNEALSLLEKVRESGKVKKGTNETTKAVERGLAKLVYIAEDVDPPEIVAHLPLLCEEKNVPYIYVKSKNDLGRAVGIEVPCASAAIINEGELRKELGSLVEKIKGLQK
Method: (§1) Subsequently, according to electrophoretic mobility shift assay (EMSA), the interaction of L7Ae with the LS-RNA was analyzed. After completion of electrophoresis using polyacrylamide gel, the polyacrylamide gel was stained with SYBR Green I and II (Lonza), and formation of an RNA-protein complex was then observed. As a result, it was confirmed that a triangular structure was formed by the interaction of the LS-RNA with L7Ae, as expected, in all of the LS-RNAs (FIG. 2).

[2] = molecular target: T2, L7Ae-Affibody (L7Ae-AFB) (UniProt O29494 O29494:1-119); assay: EMSA; details: chain copies: 3 per LS-RNA; loop of double-stranded RNA with three K-turn motifs
T2 sequence (O29494 whole entry, one chain of several): as above
Method: as §1
(§2) The function to recognize specific cancer cells was imparted to Tri-RNP. Specifically, a protein (L7Ae-AFB), in which the N-terminus of an affibody_{ZHER2:342} peptide (SEQ ID NOS: 25 and 26) was fused with the C-terminus of L7Ae via […] (SEQ ID NOS: 27 and 28), was prepared by transfecting a plasmid into Escherichia coli in accordance with Ohno, H., et al., as described above. This L7Ae-AFB was added to LS-RNA to construct RNP (Tri-AFB, FIG. 9A). When LS-26 was used as RNA (Tri-26-AFB), a triangular structure was found by HS-AFM, and it was also confirmed that a substance assumed as AFB was added to each vertex (FIG. 9B). Moreover, according to EMSA, it was confirmed that L7Ae-AFB binds to a K-turn motif, as with Tri-26 (FIG. 10).

[3] = molecular target: T1, L7Ae; assay: EMSA; triangle also by HS-AFM; details: tags: expressed from pET-28(+) (Novagen) in E. coli Rosetta; chain copies: 3 per LS-RNA; loop of double-stranded RNA with three K-turn motifs
Method: as §1

[4] = molecular target: T2, L7Ae-Affibody (L7Ae-AFB); assay: EMSA; triangle also by HS-AFM; details: chain copies: 3 per LS-RNA; loop of double-stranded RNA with three K-turn motifs
Method: as §1, §2

[5] = molecular target: T1, L7Ae; assay: HS-AFM, triangular structure with L7Ae; details: tags: expressed from pET-28(+) (Novagen) in E. coli Rosetta; chain copies: 3 per LS-RNA; loop with three K-turn motifs and a GFP siRNA duplex at each side
Method: Subsequently, the Tri-RNPs were observed by […]. […] The cantilever was set at a resonance frequency of 400-1000 kHz and at a spring constant of 0.1-0.2 N/m. A probe was deposited on the cantilever by electron beam. The mica surface was coated with 0.1% APTES, and thereafter, a 50 nM sample that had been dissolved in an RNP-binding solvent and an AFM observation solvent (20 mM Tris-HCl (pH7.6) and 10 mM MgCl2) was left at rest on the mica. The image was analyzed using software such as Image J and WSxM.
Specifically, five RNAs were hybridized with S-26, L-26-1 (SEQ ID NO: 29), L-26-2 (SEQ ID NO: 30), L-26-3 (SEQ ID NO: 31), and antisense-GFP (SEQ ID NO: 32) in the same manner as described above, such that L-26 had siRNA for GFP at the three sides thereof, thereby producing LS-26-siGFP. Subsequently, LS-26-siGFP was mixed with L7Ae to produce Tri-26-siGFP having a triangular structure, and the structure of the Tri-26-siGFP was then confirmed by HS-AFM. […] As given above, a triangular structure (Tri-26-siGFP) having a structure containing three double strands having siRNA function could be constructed.

Row | Binder | binding result [1] | binding result [2] | binding result [3] | binding result [4] | binding result [5]
1 | B1 | binds | binds | – | – | –
2 | B2 | – | binds | binds | – | –
3 | B3 | – | – | binds | binds | –
4 | B4 | – | – | – | – | binds
